Measured values: US7151087 (US Dept. of Health and Human Services, dated 2006)

B1: RANTES (ligand, human, UniProt P13501 24-91, looked up)
chain: SPYSSDTTPCCFAYIARPLPRAHIKEYFYTSGKCSNPAVVFVTRKNRQVCANPEKKWVREYINSLEMS
notes: also called unlabeled RANTES
B2: MCP-3 (ligand)
chain: not shown
notes: also called unlabeled MCP-3
B3: MIP-1β (ligand, human, UniProt P13236 24-92, looked up)
chain: APMGSDPPTACCFSYTARKLPRNFVVDYYETSSLCSQPAVVFQTKRSKQVCADPSESWVQEYVYDLELN
B4: MIP-1α (ligand, human, UniProt P10147 23-92, looked up)
chain: ASLAADTPTACCFSYTSRQIPQNFIADYFETSSQCSKPGVIFLTKRSRQVCADPSEEWVQKYVSDLELSA
notes: also called unlabeled MIP-1α
B5: CC CKR2B, stably expressed on HEK 293 cells (receptor)
chain: MLSTSRSRFIRNTNESGEEVTTFFDYDYGAPCHKFDVKQIGAQLLPPLYSLVFIFGFVGNMLVVLILINCKKLKCLTDIYLLNLAISDLLFLITLPLWAHSAANEWVFGNAMCKLFTGLYHIGYFGGIFFIILLTIDRYLAIVHAVFALKARTVTFGVVTSVITWLVAVFASVPGIIFTKCQKEDSVYVCGPYFPRGWNNFHTIMRNILGLVLPLLIMVICYSGILKTLLRCRNEKKRHRAVRVIFTIMIVYFLFWTPYNIVILLNTFQEFFGLSNCESTSQLDQATQVTETLGMTHCCINPIIYAFVGEKFRRYLSVFFRKHITKRFCKQCPVFYRETVDGVTSTNTPSTGEQEVSAGL
notes: also called CCR2b

Assays:
[1] = molecular target: T1, CC CKR1, stably expressed on HEK 293 cells (Homo sapiens (Human), UniProt P32246 1-355); assay: radioligand binding at 37° C. to CC CKR1 cells
T1 construct: also called CC CKLR1
T1 sequence: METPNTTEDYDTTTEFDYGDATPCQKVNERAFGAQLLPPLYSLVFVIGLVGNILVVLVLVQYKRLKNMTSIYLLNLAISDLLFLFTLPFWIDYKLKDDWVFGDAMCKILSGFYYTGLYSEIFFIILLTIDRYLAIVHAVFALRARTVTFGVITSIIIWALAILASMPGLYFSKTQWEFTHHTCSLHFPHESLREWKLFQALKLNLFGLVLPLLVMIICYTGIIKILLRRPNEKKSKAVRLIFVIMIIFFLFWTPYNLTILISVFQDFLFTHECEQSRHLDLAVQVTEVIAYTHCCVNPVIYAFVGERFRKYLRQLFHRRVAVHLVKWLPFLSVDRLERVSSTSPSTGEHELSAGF
Description: (§1) After incubation for 1 h at 4° C. or 37° C., unbound chemokines were separated from cells by pelleting through a 10% sucrose/PBS cushion, and the cell-associated counts were determined.

[2] = molecular target: T1, CC CKR1, stably expressed on HEK 293 …; assay: radioligand binding at 37° C. to CC CKR1-transfected HEK 293 cells
Description: as §1

[3] = molecular target: T1, CC CKR1, stably expressed on HEK 293 …; assay: homologous competition against ^125I-MIP-1β on CC CKR1 cells
Description: as §1

[4] = molecular target: T2, CC chemokine receptor 5 (CCR5), clone 8.5 cDNA, stably expressed on HEK 293 cells (human, UniProt P51681 1-352); assay: homologous competition against ^125I-MIP-1β; reference CC CKR1 cells
T2 construct: also called CC CKR5; CCR5 transfectants
Description: as §1

[5] = molecular target: T2, CC chemokine receptor 5 (CCR5), clone …; assay: homologous competition against ^125I-MIP-1β on CCR5.1 cells
Description: as §1

[6] = molecular target: T1, CC CKR1, stably expressed on HEK 293 …; assay: heterologous competition against ^125I-RANTES on CC CKR1 cells, 37° C.
Description: as §1

[7] = molecular target: T1, CC CKR1, stably expressed on HEK 293 …; assay: homologous competition against ^125I-MIP-1α on CC CKR1-transfected HEK 293 cells, 4° C.
Description: as §1
Each of the six CCR5 transfectants were tested at 4° C.

[8] = molecular target: T2, CC chemokine receptor 5 (CCR5), clone …; assay: homologous competition against ^125I-MIP-1α on CCR5.1 cells
Description: as §1

[9] = molecular target: T1, CC CKR1, stably expressed on HEK 293 …; assay: homologous competition against ^125I-MIP-1α on CC CKR1 cells
Description: as §1

[10] = molecular target: T1, CC CKR1, stably expressed on HEK 293 …; assay: homologous competition against ^125I-MIP-1α; reference CCR5.1 cells
Description: as §1

[11] = molecular target: B3; assay: radioligand binding to intact transfected HEK 293 cells, 0.2 nM ^125I-chemokine
Description: as §1

[12] = molecular target: B1; assay: as above
Description: as §1

[13] = molecular target: B4; assay: as above
Description: as §1

T2 sequence (P51681 whole entry): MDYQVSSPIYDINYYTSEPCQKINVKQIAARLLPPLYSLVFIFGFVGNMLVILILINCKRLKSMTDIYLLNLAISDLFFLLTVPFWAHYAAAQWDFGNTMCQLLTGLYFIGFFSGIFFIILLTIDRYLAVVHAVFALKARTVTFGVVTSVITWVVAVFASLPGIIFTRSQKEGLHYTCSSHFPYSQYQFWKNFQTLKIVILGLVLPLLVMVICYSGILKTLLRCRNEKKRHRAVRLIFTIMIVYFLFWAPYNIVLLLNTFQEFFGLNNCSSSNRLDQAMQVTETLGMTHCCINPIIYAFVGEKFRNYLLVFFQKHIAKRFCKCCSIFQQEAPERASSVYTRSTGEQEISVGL

B1
binding result [1]: binds

B2
binding result [2]: binds

B3
IC50 [3]: ~200 nM | fold more effective competition on CCR5.1 than on CC CKR1 [4]: ~2 fold | IC50 [5]: ~100 nM

B4
IC50 [6]: ~20 nM | Ki [7]: 10 nM | IC50 [8]: ~100 nM | IC50 [9]: ~5 nM | fold more effective competition on CC CKR1 than on CCR5.1 [10]: 20 fold

B5
binding result [11]: no binding | binding result [12]: no binding | binding result [13]: no binding
